Assay results reported in IntAct's records for PubMed 9867828.

B1: Protein S100-A9 (Homo sapiens), P06702 (parent)
chain: MTCKMSQLERNIETIINTFHQYSVKLGHPDTLNQGEFKELVRKDLQNFLKKENKNEKVIEHIMEDLDTNADKQLSFEEFIMLMARLTWASHEKMHEGDEGPGHHHKPGLGEGTP
partner: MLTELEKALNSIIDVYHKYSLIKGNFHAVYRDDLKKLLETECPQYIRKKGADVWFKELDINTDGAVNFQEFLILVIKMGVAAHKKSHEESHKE

Variants of: B1
Settings: with S100A8, P05109

Variant | effect of a mutation on the interaction
MTSKMSQLERNIETIINTFHQYSVKLGHPDTLNQGEFKELVRKDLQNFLKKENKNEKVIEHIMEDLDTNADKQLSFEEFIMLMARLTWASHEKMHEGDEGPGHHHKPGLGEGTP [C3S] | decreasing interaction
